According to patent US20170002361A1:

Target: Flag-tagged NS5B (hepatitis C virus)
Assay: cell-based or functional assay

For “protein kinase C-related kinase 2 (PRK2) (from UniProt Q16513 1-984) (enzyme)”, the level of p-NS5B (32P-orthophosphate metabolic labeling, immunoprecipitation, autoradiography) after PRK2 silencing with siPRK2-1 was 55%.
